For orientation: Tm means the temperature at the midpoint of the melting transition.

The record followed here is FireProtDB (doi:10.3390/ijms21030752).

The chains are these.
B1: Guanylyl cyclase-activating protein 1, P43080 (parent)
chain: MGNVMEGKSVEELSSTECHQWYKKFMTECPSGQLTLYEFRQFFGLKNLSPSASQYVEQMFETFDFNKDGYIDFMEYVAALSLVLKGKVEQKLRWYFKLYDVDGNGCIDRDELLTIIQAIRAINPCSDTTMTAEEFTDTVFSKIDVNGDGELSLEEFIEGVQKDQMLLDTLTRSLDLTRIVRRLQNGEQDEEGADEAAEAAG

The data set covers variants of B1. The note with it: Homo sapiens, pH 7.5, Thermal, CD, Tris-HCl 20mM, whole UniProt chain shown.

With MGNVMEGKSVEELSSTECHQWYKKFMTECPSGQLTLYEFRQFFGLKNLSPSASQYVEQMFETFDFNKDGYIDFMEYVAALSLVLKRKVEQKLRFYFKLYDVDGNGCIDRDELLTIIQAIRAINPCSDTTMTAEEFTDTVFSKIDVNGDGELSLEEFIEGVQKDQMLLDTLTRSLDLTRIVRRLQNGEQDEEGADEAAEAAG [G86R W94F], the Tm is, setting by setting: (KCL 150 mM) 40.6 °C; (KCL and Mg2+ 150 mM and 1 mM) 47.8 °C. Also, the “change of melting temperature, mutant - wild type (higher = more stable)” value (from here on “change of melting temperature, mutant”) (KCL 150 mM) is -9.2 °C; the “change of melting temperature, mutant” value (KCL and Mg2+ 150 mM and 1 mM) was -2.5 °C.
The like results for MGNVMEGKSVEELSSTECHQWYKKFMTECPSGQLTLYEFRQFFGLKNLSPSASQYVEQMFETFDFNKDGYIDFMEYVAALSLVLKRKVEQKLRLYFKLYDVDGNGCIDRDELLTIIQAIRAINPCSDTTMTAEEFTDTVFSKIDVNGDGELSLEEFIEGVQKDQMLLDTLTRSLDLTRIVRRLQNGEQDEEGADEAAEAAG [G86R W94L] were, in that order, 42 °C, 47 °C, -7.8 °C and -3.3 °C.
Consider MGNVMEGKSVEELSSTECHQWYKKFMTECPSGQLTLYEFRQFFGLKNLSPSASQYVEQMFETFDFNKDGYIDFMEYVAALSLVLKRKVEQKLRWYFKLYDVDGNGCIDRDELLTIIQAIRAINPCSDTTMTAEEFTDTVFSKIDVNGDGELSLEEFIEGVQKDQMLLDTLTRSLDLTRIVRRLQNGEQDEEGADEAAEAAG [G86R], for which, for the setting “KCL 150 mM”, the Tm was found to be 41.6 °C and the “change of melting temperature, mutant” value is -8.2 °C. Moreover, under “KCL and Mg2+ 150 mM and 1 mM”, the Tm is 46.8 °C and the “change of melting temperature, mutant” value was -3.5 °C.
